According to US20120039879A1:

Legend:
ROBO1 [1] = target: ROBO1 (UniProt Q9Y6N7); experiment: ITC, compared with the scFv alone
ROBO1 [2] = target: ROBO1 (UniProt Q9Y6N7); experiment: ITC, ROBO1 titrated into B5209B mouse-scFv-mcSA414 (3.7 µM), 25° C., PBS; ITC, 25 C, PBS, ROBO1 titrated into the scFv-mcSA414 tetramer (3.7 uM)
ROBO1 [3] = target: ROBO1 (UniProt Q9Y6N7); experiment: ITC, one-site model (OneSites): ROBO1 injected into B5209B mouse-scFv-mcSA414 (3.7 uM) at 25 C in PBS
ROBO1 [4] = target: ROBO1 (UniProt Q9Y6N7); experiment: ITC, ROBO1 titrated into B5209B mouse-scFv-mcSA414 (3.7 µM), 25° C., PBS

B1: B5209B mouse-scFv-mcSA414 (protein)
chain: MAEVQLVESGGGVVQPGGSLKLSCAASGFTFSTYDMSWVRQTPDKRLELVATINSNGGSTYYPDSVKGRFTSSRDNAKNILYLQMSSLKSEDTAMYYCAREALLRPPYYALDYWGQGTSVTVSSAGGGGSGGGGSGGGGSDILDIQMTQSPASLSASVGETVTITCGASENIYGALTWYQRKQGKSPQLLIYGAINLADDKSSRFSGSGSGRQYSLKISSLHPDDVATYYCQNVLSTPFTFGSGTKLEIKAAGSSGSGSAAEAGITGTWSNQLGSTFIVTAGADGALTGTYESAVGNAESRYVLTGRYDSAPATDGSGTALGWTVAWKNNSKNAHSATTWSGQYVGGADAKINTQWLLTSGTTQANAWKSTLVGHDTFTKVKPSAASGARHHHHHH
B1 showed a reduction in affinity compared with scFV (ROBO1 [1]) of 10 fold, a ΔS value relative to scFV (ratio to scFV) (ROBO1 [1]) of 0.025 and a Kd (ROBO1 [2]) of 33 nM. For the same binder, the N (fitted stoichiometry, ROBO1 per scFv-mcSA414 in the cell) (ROBO1 [3]) was 0.334, the binding ratio (molecules of ROBO1 per tetramer) (ROBO1 [4]) was 2 and the enthalpy change (ΔH) (ROBO1 [4]) was -3.85 kcal/mol. For the same binder, the entropy change (ΔS) (ROBO1 [4]) was -22 J/mol·K.
